Data reported in the supplement of paper PMC12855868.

B1: library; numbered along this chain (parent)
chain: MAAAGGARLLRAASAVLGGPAGRWLHHAGSRAGSSGLLRNRGPGGSAEASRSLSVSARARSSSEDKITVHFINRDGETLTTKGKVGDSLLDVVVENNLDIDGFGACEGTLACSTCHLIFEDHIYEKLDAITDEENDMLDLAYGLTDRSRLGCQICLTKSMDNMTVRVPETVADARQSIDVGKTS

Variants of: B1
Assay: scaled log2 fold change in cell abundance, elesclomol vs control (0 = silent mean, 1 = nonsense mean) (scaled log2 ratio); higher = higher viability under elesclomol (loss of FDX1 cuproptosis function)
Details: glucose 10 mM
Description: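 Deep mutational scan of full-length human FDX1: a pooled saturation-mutagenesis ORF library (every residue 2-184 mutated to all 19 amino acids plus stop, and silent codons where available) was expressed by lentivirus in FDX1-knockout ABC1 (14 days) or HEK293T (11 days) cells grown with elesclomol (ES) or DMSO control. Variant abundance came from ORF sequencing. The log2 fold change (ES vs control, mean of duplicates) was centred on the silent-variant mean (0) and scaled to the nonsense-variant mean (1). Higher values mean greater viability under ES, i.e. loss of FDX1 function in cuproptosis.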

[1] = with ABC1 FDX1 KO, elesclomol 5 nM, 14 days
[2] = with HEK293T FDX1 KO, elesclomol 40 nM, 11 days
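Also: variant abundance is its share of total variant reads in each endpoint sample, from next-generation sequencing of the integrated ORF PCR-amplified out of genomic DNA.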

Variant | scaled log2 fold change [1] | scaled log2 fold change [2]
H27D | -0.0235 | -0.507
H27Y | -0.231 | 0.0795
H27L | 0.396 | 
H27A | -0.0135 | 0.337
H27N | -0.105 | 0.565
H27Q | 0.286 | -0.318
H27I | -0.11 | 1.23
H27R | 0.168 | -0.247
H27T | -0.307 | 
H27F | 0.196 | 0.363
H27K | 0.325 | 0.621
H27E | -0.316 | -0.0257
H27M | 0.0388 | 
H27S | 0.273 | 
H27W | -0.436 | 0.305
H27C | 0.145 | -0.412
H27V | 0.305 | 0.364
H27P | -0.143 | 
H27G | 0.0381 | -0.171
A28D | 0.233 | -0.109
A28W | -0.122 | 0.863
A28Q | 0.264 | 0.224
A28F | 0.368 | 0.0914
A28C | 0.232 | 0.15
A28V | 0.133 | -0.408

Variant | scaled log2 fold change [1] | scaled log2 fold change [2]
A28M | -0.0504 | -0.198
A28Y | -0.00855 | 0.974
A28R | 0.246 | 2.14
A28I | -0.00142 | 0.691
A28N | -0.0865 | -0.0101
A28T | -0.152 | 
A28E | 0.301 | -0.431
A28K | -0.114 | 0.248
A28S | -0.179 | -0.13
A28L | -0.00195 | 
A28H | -0.736 | -0.127
A28G | 0.336 | 1.17
A28P | 0.56 | 0.292
L38A | -0.113 | 
L38C | -0.631 | 0.0841
L38S | -0.172 | -0.0978
L38W | -0.0179 | 
L38E | 0.019 | 0.931
L38G | -0.74 | 
L38K | -0.0234 | 0.601
L38M | 0.492 | 1.02
L38P | -0.12 | 0.667
L38T | 0.403 | 0.953
L38Y | -0.0523 | -0.184
L38I | -0.615 | 0.0108

Variant | scaled log2 fold change [1] | scaled log2 fold change [2]
L38F | 0.294 | 0.135
L38R | 0.333 | 1.23
L38D | 0.132 | -0.187
L38Q | -0.878 | -0.206
L38N | 0.377 | 0.121
L38H | 0.153 | 0.35
L38V | -0.109 | 
G33V | 0.127 | 0.731
G33Y | 0.0588 | 0.657
G33T | 0.154 | 0.176
G33R | -0.26 | -0.362
G33P | -0.0501 | 0.139
G33I | 0.161 | 0.713
G33H | 0.23 | 0.469
G33F | 0.0743 | 0.637
G33E | 0.197 | -0.759
G33N | 0.0785 | 0.48
G33C | -0.0719 | 0.194
G33W | -0.0437 | 0.197
G33M | 0.0509 | -0.453
G33K | 0.0454 | 0.247
G33A | 0.0776 | 0.0796
G33Q | -0.173 | -0.043
G33L | -0.121 | -1.21
G33S | 0.208 | -0.0845

Variant | scaled log2 fold change [1] | scaled log2 fold change [2]
G29Y | -0.628 | 
G29C | 0.0521 | -0.731
G29S | 0.00542 | -0.441
G29E | 0.324 | 0.361
G29I | 0.147 | -1.13
G29W | 0.42 | 0.76
G29M | -0.124 | -0.568
G29D | 0.238 | 
G29R | -0.244 | -0.0867
G29V | -0.87 | 
G29P | -0.415 | -0.6
G29K | -0.417 | 1.26
G29T | -0.284 | -0.357
G29F | -0.118 | -0.149
S30E | 0.181 | -0.188
S30M | 0.423 | -0.121
S30A | 0.166 | -0.0965
S30T | -0.784 | -0.554
S30L | 0.0325 | 
S30Q | 0.345 | -0.23
S30I | 0.0124 | -0.232
S30G | -0.403 | 0.208
S30N | 0.26 | -0.64
S30H | 0.109 | 0.106
S30C | 0.348 | -0.559

Variant | scaled log2 fold change [1] | scaled log2 fold change [2]
S30R | 0.119 | 
S30K | 0.428 | -0.721
S30V | 0.222 | -0.701
S30F | -0.244 | -0.2
S30D | 0.413 | 0.89
S30Y | -0.00883 | -0.262
R31Y | 0.463 | -0.658
R31T | -0.552 | -0.717
R31G | 0.358 | -0.248
R31Q | 0.031 | 0.166
R31A | 0.317 | 
R31S | 0.29 | 0.11
R31W | -0.118 | -0.246
R31M | 0.66 | 
R31H | -0.603 | 
R31N | -0.000941 | 
R31E | -0.00724 | 
R31I | 0.762 | 
R31P | 0.561 | -0.0123
R31F | -0.116 | 0.357
R31V | 0.267 | 
S34V | 0.0515 | -1.09
S34E | -0.124 | -0.639
